T1: SR344 (N-terminal 1st to 344th amino acids of soluble human IL-6R) (human, UniProt P08887 20-344, limits assumed)
T1 sequence (looked up): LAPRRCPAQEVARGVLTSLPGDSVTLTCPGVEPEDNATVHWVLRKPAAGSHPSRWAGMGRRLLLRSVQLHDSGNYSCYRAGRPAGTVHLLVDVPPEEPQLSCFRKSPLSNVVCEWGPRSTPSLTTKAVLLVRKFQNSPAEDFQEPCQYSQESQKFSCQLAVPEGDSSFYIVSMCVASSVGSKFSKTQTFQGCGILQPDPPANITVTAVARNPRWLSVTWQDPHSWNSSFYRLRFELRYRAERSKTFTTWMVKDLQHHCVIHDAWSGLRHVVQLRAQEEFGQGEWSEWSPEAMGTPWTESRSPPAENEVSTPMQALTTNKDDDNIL

T2: recombinant human IL-6R sR (R&D systems) (human, UniProt P08887 20-358)
T2 construct: Bought soluble receptor; also called rhIL-6sR; rhIL-s6R
T2 sequence (looked up): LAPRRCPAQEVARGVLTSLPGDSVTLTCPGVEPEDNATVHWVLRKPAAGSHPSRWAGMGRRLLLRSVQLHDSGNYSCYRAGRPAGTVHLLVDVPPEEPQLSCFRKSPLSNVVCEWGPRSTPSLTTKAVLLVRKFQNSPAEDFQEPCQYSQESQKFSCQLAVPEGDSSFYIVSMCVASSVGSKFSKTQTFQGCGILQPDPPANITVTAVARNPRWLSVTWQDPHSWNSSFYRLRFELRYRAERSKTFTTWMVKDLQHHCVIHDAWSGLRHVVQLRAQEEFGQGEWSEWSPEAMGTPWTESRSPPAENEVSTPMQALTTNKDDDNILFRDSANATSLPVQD

B1: F2H/L39-IgG1 (antibody, V domains shown)
VH: QVQLQESGPGLVKPSETLSLTCAVSGYSISDDHAWSWVRQPPGEGLEWIGYISYSGITNYNPSLQDRVTISRDNSKNTLYLQMNSLRAEDTAVYYCARLLARATAMDYWGQGILVTVSS
VL: DIQMTQSPSSLSASVGDSVTITCQASEDISSYLNWYQQKPGKAPELLIYYGSELESGVPSRFSGSGSGTDFTFTISSLEAEDAATYYCGQGNRLPYTFGQGTKVEIER
B2: RDC-23 (antibody, V domains shown)
VH: QVQLQESGPGLVRPSQTLSLTCTVSGYSITSDHAWSWVRQPPGRGLEWIGYISYSGITTYNPSLKSRVTMLRDTSKNQFSLRLSSVTAADTAVYYCARVLARITAMDYWGQGSLVTVSS
VL: DIQMTQSPSSLSASVGDRVTITCRASQDISSYLNWYQQKPGKAPKLLIYYTSRLHSGVPSRFSGSGSGTDFTFTISSLQPEDIATYYCGQGNRLPYTFGQGTKVEIK
notes: also called RDC-5H/RDC-11L

Legend:
[1] = target: T1, SR344 (N-terminal 1st to 344th amino …); assay: cell-based or functional assay
[2] = target: T1, SR344 (N-terminal 1st to 344th amino …); assay: SPR (Biacore T100), Protein A/G capture, SR344 as analyte, 37 C
[3] = target: T1, SR344 (N-terminal 1st to 344th amino …); assay: SPR (Biacore T100), Protein A/G capture, SR344 at 0, 0.36 and 1.4 µg/ml, 15 min dissociation, 37 C
[4] = target: T1, SR344 (N-terminal 1st to 344th amino …); assay: SPR (Biacore T100), antibody captured on Protein A/G, SR344 as analyte, 37 C
Description: This measurement was carried out under the same conditions described in Example 2. The running buffer used was HBS-EP+, and the flow rate was 20 μl/min. Each antibody was prepared so that about 100 RU of the antibody was bound to Protein A/G. SR344 was prepared at 0, 0.065, 0.131, and 0.261 μg/ml using HBS-EP+ and used as an analyte. In the first step of the measurement, the antibody in solution was bound to Protein A/G, and the analyte solution was allowed to interact therewith. After three minutes of interaction, the solution was switched to HBS-EP+, and the dissociation phase was monitored for 10 or 15 minutes. After measurement of the dissociation phase, the sensor chip was regenerated by washing with 10 μl of 10 mM glycine-HCl (pH 1.5). The association, dissociation, and regeneration constitute one analysis cycle. Each antibody was measured according to this cycle.
The sensorgram was kinetically analyzed using the Biacore-specific data analysis software, Biacore T100 Evaluation Software.

[5] = target: T2, recombinant human IL-6R sR (R&D systems); assay: SPR (Biacore T100), antibody captured on Protein A/G, antigen as analyte, 37 C
Description: (§1) A sensor chip was prepared by immobilizing about 3,000 RU of Protein A/G onto CM5 (Biacore) with the amine coupling method. […] The running buffer used was HBS-EP+, and the flow rate was 20 μl/min. Each antibody was prepared so that about 100 RU of the antibody was bound to Protein A/G. For the analyte, rhIL-6sR was prepared at 0, 0.156, 0.313, and 0.625 μg/ml using HBS-EP+, while SR344 was adjusted to 0, 0.0654, 0.131, and 0.261 μg/ml. […] After three minutes of interaction, the solution was switched with HBS-EP+ (Biacore), and the dissociation phase was monitored for ten minutes. After measurement of the dissociation phase, the sensor chip was regenerated by washing with 10 μl of 10 mM glycine-HCl (pH 1.5). The association, dissociation, and regeneration constituted one analytic cycle. All experiments were carried out at 37° C.
(§2) The obtained sensorgrams were kinetically analyzed using Biacore T100 Evaluation Software, which is a data analysis software specific for Biacore (Table 3). […] All measurements described hereinafter in the Examples were carried out at 37° C. to kinetically analyze the antigen-antibody reaction using SR344 and protein A/G.

[6] = target: T1, SR344 (N-terminal 1st to 344th amino …); assay: as above
Description: as §1, §2

[7] = target: T2, recombinant human IL-6R sR (R&D systems); assay: SPR (Biacore T100), antibody captured on Protein A, rhIL-6sR as analyte, 25 C
Description: The antigen-antibody interaction was measured by immobilizing 4,400 to 5,000 RU of rec-Protein A (Zymed) immobilized onto a sensor chip by the amine coupling method, binding various antibodies onto the chip, and then flowing the antigen over the chip as an analyte. For the antigen, various concentrations of rhIL-6sR were used. All measurements were carried out at 25° C. The kinetic parameters, association rate constant kₐ (1/Ms) and dissociation rate constant kd (1/s) were calculated from the sensorgrams obtained by measurement. Then, KD (M) was determined based on the rate constants. The respective parameters were determined using Biacore T100 Evaluation Software (Biacore).

[8] = target: T2, recombinant human IL-6R sR (R&D systems); assay: SPR (Biacore T100), antibody captured on Protein A/G, antigen as analyte, 37 C; remark: listed apart in the source
Description: (§3) The antigen-antibody interaction was measured by immobilizing purified Recomb Protein A/G (Pierce) (hereinafter “Protein A/G”) onto a sensor chip, binding various antibodies onto the chip, and then flowing the antigen as an analyte over the chip. Various concentrations of rhIL-6sR (R&D systems) and recombinant soluble IL-6 receptor (SR344 prepared in Example 1) were used as the antigen. The sugar chain structure of rhIL-6sR produced by baculovirus-infected insect cells is of high-mannose type. On the other hand, the sugar chain structure of SR344 produced by CHO cells is assumed to be of the complex sugar chain type with sialic acid at its end. Since the sugar chain structure of soluble IL-6 receptor in an actual human body is assumed to be of the complex sugar chain type with sialic acid at its end, SR344 is expected to have a structure closer to that of soluble IL-6 receptor in the human body. Thus, a comparison test between rhIL-6sR and SR344 was carried out in this experiment.
as §1

[9] = target: T1, SR344 (N-terminal 1st to 344th amino …); assay: as above; remark: listed apart in the source
Description: as §3, §1

Row | Binder | BaF3/gp130 neutralizing activity, 100% inhibitory concentration against WT [1] | ka relative to PF1-IgG1 [2] | Kd [3] | koff [3] | kon [3] | Kd [4] | koff [4] | kon [4] | fold improved affinity against WT [5] | fold improved affinity against WT [6] | Kd [7] | koff [7] | kon [7] | Kd [8] | koff [8] | kon [8] | Kd [9] | koff [9] | kon [9]
1 | B1 | ≥ 100 fold | ~0.5 fold | 0.052 nM | 4e-05 s⁻¹ | 770000 M⁻¹ s⁻¹ |  |  |  |  |  |  |  |  |  |  |  |  |  | 
2 | B2 | ~100 fold |  |  |  |  | 0.067 nM | 4.3e-05 s⁻¹ | 640000 M⁻¹ s⁻¹ | 40 to 60 fold | 40 to 60 fold | 0.025 nM | 3.1e-05 s⁻¹ | 1.2e+06 M⁻¹ s⁻¹ | 0.028 nM | 4.5e-05 s⁻¹ | 1.6e+06 M⁻¹ s⁻¹ | 0.067 nM | 4.3e-05 s⁻¹ | 640000 M⁻¹ s⁻¹

— patent US20150284465A1 (Chugai, published 2015)
